These results are taken from paper PMC2064109 (The Journal of Cell Biology, 2007).

This test concerns the target T1, His-tagged bacterially expressed MBP-POSH fusion protein (human, UniProt Q7Z6J0 1-888).
T1 sequence (looked up): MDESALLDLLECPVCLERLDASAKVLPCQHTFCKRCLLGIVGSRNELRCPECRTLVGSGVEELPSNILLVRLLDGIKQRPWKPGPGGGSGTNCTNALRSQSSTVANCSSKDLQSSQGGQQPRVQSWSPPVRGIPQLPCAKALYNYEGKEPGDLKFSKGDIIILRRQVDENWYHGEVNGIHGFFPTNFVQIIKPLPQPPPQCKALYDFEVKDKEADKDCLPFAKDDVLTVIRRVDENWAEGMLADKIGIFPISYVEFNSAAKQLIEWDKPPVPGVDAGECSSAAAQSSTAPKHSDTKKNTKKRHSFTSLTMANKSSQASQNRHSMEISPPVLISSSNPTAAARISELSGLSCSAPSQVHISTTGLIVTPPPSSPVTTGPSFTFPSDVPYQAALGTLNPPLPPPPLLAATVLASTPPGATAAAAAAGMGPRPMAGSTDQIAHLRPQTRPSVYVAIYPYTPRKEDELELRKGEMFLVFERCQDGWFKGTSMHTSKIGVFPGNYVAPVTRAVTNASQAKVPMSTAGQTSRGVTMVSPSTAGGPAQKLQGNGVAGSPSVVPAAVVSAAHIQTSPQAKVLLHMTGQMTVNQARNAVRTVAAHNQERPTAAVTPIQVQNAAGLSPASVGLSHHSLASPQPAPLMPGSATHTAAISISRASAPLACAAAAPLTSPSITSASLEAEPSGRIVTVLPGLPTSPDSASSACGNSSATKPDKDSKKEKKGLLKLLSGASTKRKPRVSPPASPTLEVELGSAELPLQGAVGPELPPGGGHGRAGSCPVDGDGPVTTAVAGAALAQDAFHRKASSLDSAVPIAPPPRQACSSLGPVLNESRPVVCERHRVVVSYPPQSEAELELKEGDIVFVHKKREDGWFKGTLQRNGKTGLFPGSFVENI
The test can be described thus: co-IP.

B1: truncated Herp (tHerp; amino acids 1-272) with FLAG tag (domain or fragment, UniProt Q15011 1-272, looked up)
chain: MESETEPEPVTLLVKSPNQRHRDLELSGDRGWSVGHLKAHLSRVYPERPRPEDQRLIYSGKLLLDHQCLRDLLPKQEKRHVLHLVCNVKSPSKMPEINAKVAESTEEPAGSNRGQYPEDSSSDGLRQREVLRNLSSPGWENISRPEAAQQAFQGLGPGFSGYTPYGWLQLSWFQQIYARQYYMQYLAATAASGAFVPPPSAQEIPVVSAPAPAPIHNQFPAENQPANQNAAPQVVVNPGANQNLRMNAQGGPIVEEDDEINRDWLDWTYSAA
Turning to B1, the binding result is reported as “binds”.
